{
  "source": "patent US20160264649A1",
  "assay_in_all_cases": "cell-based or functional assay",
  "key": {"[1]": {"target": "HIV-1 Env of isolate 6535.3 (HIV-1)"}, "[2]": {"target": "HIV-1 Env of isolate 92 BR 020 (HIV-1)"}, "[3]": {"target": "HIV-1 Env of isolate 93IN905 (HIV-1)"}, "[4]": {"target": "HIV-1 Env of isolate 93MW959 (HIV-1)"}, "[5]": {"target": "HIV-1 Env of isolate 93TH305 (HIV-1)"}, "[6]": {"target": "HIV-1 Env of isolate 97ZA012 (HIV-1)"}, "[7]": {"target": "HIV-1 Env of isolate 98IN022 (HIV-1)"}, "[8]": {"target": "HIV-1 Env of isolate APV_13 (HIV-1)"}, "[9]": {"target": "HIV-1 Env of isolate APV_17 (HIV-1)"}, "[10]": {"target": "HIV-1 Env of isolate APV_6 (HIV-1)"}, "[11]": {"target": "HIV-1 Env of isolate CAAN.A2 (HIV-1)"}, "[12]": {"target": "HIV-1 Env of isolate JRCSF (HIV-1) (UniProt P20871)"}, "[13]": {"target": "HIV-1 Env of isolate JRFL (HIV-1)"}, "[14]": {"target": "HIV-1 Env of isolate MG RM-C-020 (HIV-1)"}, "[15]": {"target": "HIV-1 Env of isolate MG RM-C-022 (HIV-1)"}, "[16]": {"target": "HIV-1 Env of isolate MG RM-C-023 (HIV-1)"}, "[17]": {"target": "HIV-1 Env of isolate MG RM-C-024 (HIV-1)"}, "[18]": {"target": "HIV-1 Env of isolate MG RM-C-025 (HIV-1)"}, "[19]": {"target": "HIV-1 Env of isolate MG RM-C-026 (HIV-1)"}, "[20]": {"target": "HIV-1 Env of isolate MG RM-C-027 (HIV-1)"}, "[21]": {"target": "HIV-1 Env of isolate MG RM-C-028 (HIV-1)"}, "[22]": {"target": "HIV-1 Env of isolate MGRM-Chronic-B-001 (HIV-1)"}, "[23]": {"target": "HIV-1 Env of isolate MGRM-Chronic-B-002 (HIV-1)"}, "[24]": {"target": "HIV-1 Env of isolate MGRM-Chronic-B-003 (HIV-1)"}, "[25]": {"target": "HIV-1 Env of isolate MGRM-Chronic-B-004 (HIV-1)"}, "[26]": {"target": "HIV-1 Env of isolate MGRM-Chronic-B-008 (HIV-1)"}, "[27]": {"target": "HIV-1 Env of isolate MGRM-Chronic-B-010 (HIV-1)"}, "[28]": {"target": "HIV-1 Env of isolate MGRM-Chronic-B-011 (HIV-1)"}, "[29]": {"target": "HIV-1 Env of isolate MGRM-Chronic-B-012 (HIV-1)"}, "[30]": {"target": "HIV-1 Env of isolate MGRM-Chronic-B-017 (HIV-1)"}, "[31]": {"target": "HIV-1 Env of isolate MGRM-Chronic-B-018 (HIV-1)"}, "[32]": {"target": "HIV-1 Env of isolate MGRM-Chronic-B-020 (HIV-1)"}, "[33]": {"target": "HIV-1 Env of isolate MGRM-Chronic-B-023 (HIV-1)"}, "[34]": {"target": "HIV-1 Env of isolate MGRM-Chronic-B-024 (HIV-1)"}, "[35]": {"target": "HIV-1 Env of isolate NL43 (HIV-1)"}, "[36]": {"target": "HIV-1 Env of isolate PVO.4 (HIV-1)"}, "[37]": {"target": "HIV-1 Env of isolate QH0692.42 (HIV-1)"}, "[38]": {"target": "HIV-1 Env of isolate SC422661.8 (HIV-1)"}, "[39]": {"target": "HIV-1 Env of isolate SF162 (HIV-1) (UniProt P19550)"}, "[40]": {"target": "HIV-1 Env of isolate THR0.18 (HIV-1)"}, "[41]": {"target": "HIV-1 Env of isolate TRJ04551.58 (HIV-1)"}, "[42]": {"target": "HIV-1 Env of isolate TRO.11 (HIV-1)"}, "[43]": {"target": "HIV-1 Env of isolate VLGCB3 (HIV-1)"}},
  "data": [
    {"substance": "PGT-126 monoclonal antibody (5141_B17)", "values": [
      {"measurement": "neutralization IC50", "setting": "[1]", "value": 0.022, "unit": "µg/mL"},
      {"measurement": "neutralization IC50", "setting": "[2]", "value": 0.015, "unit": "µg/mL"},
      {"measurement": "neutralization IC50", "setting": "[3]", "value": 0.015, "unit": "µg/mL"},
      {"measurement": "neutralization IC50", "setting": "[4]", "value": 9.44, "unit": "µg/mL"},
      {"measurement": "neutralization IC50", "setting": "[5]", "value": 0.013, "unit": "µg/mL"},
      {"measurement": "neutralization IC50", "setting": "[6]", "value": 0.042, "unit": "µg/mL"},
      {"measurement": "neutralization IC50", "setting": "[7]", "value": 0.279, "unit": "µg/mL"},
      {"measurement": "neutralization IC50", "setting": "[8]", "value": 0.012, "unit": "µg/mL"},
      {"measurement": "neutralization IC50", "setting": "[9]", "value": 0.353, "unit": "µg/mL"},
      {"measurement": "neutralization IC50", "setting": "[10]", "value": 7, "unit": "ng/mL"},
      {"measurement": "neutralization IC50", "setting": "[11]", "value": 0.273, "unit": "µg/mL"},
      {"measurement": "neutralization IC50", "setting": "[12]", "value": 8, "unit": "ng/mL"},
      {"measurement": "neutralization IC50", "setting": "[13]", "value": 0.014, "unit": "µg/mL"},
      {"measurement": "neutralization IC50", "setting": "[14]", "value": "> 50", "unit": "µg/mL"},
      {"measurement": "neutralization IC50", "setting": "[15]", "value": 0.96, "unit": "µg/mL"},
      {"measurement": "neutralization IC50", "setting": "[16]", "value": 0.065, "unit": "µg/mL"},
      {"measurement": "neutralization IC50", "setting": "[17]", "value": "> 50", "unit": "µg/mL"},
      {"measurement": "neutralization IC50", "setting": "[18]", "value": 0.786, "unit": "µg/mL"},
      {"measurement": "neutralization IC50", "setting": "[19]", "value": 7, "unit": "ng/mL"},
      {"measurement": "neutralization IC50", "setting": "[20]", "value": 15.6, "unit": "µg/mL"},
      {"measurement": "neutralization IC50", "setting": "[21]", "value": 0.196, "unit": "µg/mL"},
      {"measurement": "neutralization IC50", "setting": "[22]", "value": "> 50", "unit": "µg/mL"},
      {"measurement": "neutralization IC50", "setting": "[23]", "value": 0.078, "unit": "µg/mL"},
      {"measurement": "neutralization IC50", "setting": "[24]", "value": 0.041, "unit": "µg/mL"},
      {"measurement": "neutralization IC50", "setting": "[25]", "value": 0.01, "unit": "µg/mL"},
      {"measurement": "neutralization IC50", "setting": "[26]", "value": 5.89, "unit": "µg/mL"},
      {"measurement": "neutralization IC50", "setting": "[27]", "value": 5, "unit": "ng/mL"},
      {"measurement": "neutralization IC50", "setting": "[28]", "value": 0.108, "unit": "µg/mL"},
      {"measurement": "neutralization IC50", "setting": "[29]", "value": 0.027, "unit": "µg/mL"},
      {"measurement": "neutralization IC50", "setting": "[30]", "value": "> 50", "unit": "µg/mL"},
      {"measurement": "neutralization IC50", "setting": "[31]", "value": 0.052, "unit": "µg/mL"},
      {"measurement": "neutralization IC50", "setting": "[32]", "value": 0.021, "unit": "µg/mL"},
      {"measurement": "neutralization IC50", "setting": "[33]", "value": "> 50", "unit": "µg/mL"},
      {"measurement": "neutralization IC50", "setting": "[34]", "value": "> 50", "unit": "µg/mL"},
      {"measurement": "neutralization IC50", "setting": "[35]", "value": "> 50", "unit": "µg/mL"},
      {"measurement": "neutralization IC50", "setting": "[36]", "value": 0.017, "unit": "µg/mL"},
      {"measurement": "neutralization IC50", "setting": "[37]", "value": 0.048, "unit": "µg/mL"},
      {"measurement": "neutralization IC50", "setting": "[38]", "value": 0.119, "unit": "µg/mL"},
      {"measurement": "neutralization IC50", "setting": "[39]", "value": 3, "unit": "ng/mL"},
      {"measurement": "neutralization IC50", "setting": "[40]", "value": "> 50", "unit": "µg/mL"},
      {"measurement": "neutralization IC50", "setting": "[41]", "value": 0.025, "unit": "µg/mL"},
      {"measurement": "neutralization IC50", "setting": "[42]", "value": 0.041, "unit": "µg/mL"},
      {"measurement": "neutralization IC50", "setting": "[43]", "value": 7, "unit": "ng/mL"}
    ]}
  ]
}
